Data taken from article PMC9926122.

Molecular target: recombinant EB1 (HS-AFM and microtubule experiments) (human) (UniProt Q15691)
Sequence (Q15691 whole entry): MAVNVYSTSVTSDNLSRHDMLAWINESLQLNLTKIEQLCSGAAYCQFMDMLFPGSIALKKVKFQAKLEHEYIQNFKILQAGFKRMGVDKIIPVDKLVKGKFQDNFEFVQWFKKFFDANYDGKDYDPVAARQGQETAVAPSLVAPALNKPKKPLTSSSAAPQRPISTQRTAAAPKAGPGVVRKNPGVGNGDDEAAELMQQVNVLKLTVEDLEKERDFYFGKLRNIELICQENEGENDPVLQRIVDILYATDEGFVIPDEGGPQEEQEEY

Chain of 6xHis-tagged WT Ska1 (Q96BD8 whole entry): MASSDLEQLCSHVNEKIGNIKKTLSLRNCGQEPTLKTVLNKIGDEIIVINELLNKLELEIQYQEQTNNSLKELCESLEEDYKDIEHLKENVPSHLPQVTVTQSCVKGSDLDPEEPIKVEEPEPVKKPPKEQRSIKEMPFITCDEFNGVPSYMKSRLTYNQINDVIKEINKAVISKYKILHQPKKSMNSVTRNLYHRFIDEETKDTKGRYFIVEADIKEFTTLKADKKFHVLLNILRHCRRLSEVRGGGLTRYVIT

localization of Ska1 on prepolymerized MTs in vitro in the presence of EB1 (1 uM), fluorescence microscopy: WT Ska1 against Ska1 ΔSHLP (0.5 uM each): 1.6 fold
Substance: 6xHis-tagged WT Ska1 (from UniProt Q96BD8 1-255) (natural protein)
